Results reported in patent US20090163411A1 (BOLDER BIOTECHNOLOGY, published 2009).

Biological target: Recombinant Human Vascular Endothelial Growth Factor (rhVEGF) (human, UniProt P15692-4 27-191, limits assumed)
Assay: cell-based or functional assay

Sequence of Recombinant Human Vascular Endothelial Growth Factor (rhVEGF) (P15692 other isoform, or with tags, fused parts or gaps limits assumed): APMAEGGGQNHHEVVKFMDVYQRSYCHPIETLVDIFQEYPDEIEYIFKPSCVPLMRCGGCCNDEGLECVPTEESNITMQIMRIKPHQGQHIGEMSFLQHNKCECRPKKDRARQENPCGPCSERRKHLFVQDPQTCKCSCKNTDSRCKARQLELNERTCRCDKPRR

B1: sFlt-1(3) N164C (receptor)
chain: SKLKDPELSLKGTQHIMQAGQTLHLQCRGEAAHKWSLPEMVSKESERLSITKSACGRNGKQFCSTLTLNTAQANHTGFYSCKYLAVPTSKKKETESAIYIFISDTGRPFVEMYSEIPEIIHMTEGRELVIPCRVTSPCITVTLKKFPLDTLIPDGKRIIWDSRKGFIISNATYKEIGLLTCEATVNGHLYKTNYLTHRQTNTIIDVQISTPRPVKLLRGHTLVLNCTATTPLNTRVQMTWSYPDEKNKRASVRRRIDQSNSHANIFYSVLTIDKMQNKDKGLYTCRVRSGPSFKSVNTSVHIYDKAFITVKH
Q: Which “Ave Ec50's (ng/ml); inhibition of VEGF-stimulated HUVEC proliferation, BrdU Cell Proliferation assay” value does the source give for B1 here?
A: Its value is 103 ng/mL.
